Experimental data: patent US20200002383A1

How the values were obtained:
[1] = target: CH505 transmitted/founder (TF) gp120 Env (HIV-1); experiment: SPR, antibody captured, gp120 injected
[2] = target: CH505 TF CHIM.6R.SOSIP.664V4.1 trimer (HIV-1); experiment: kinetic binding assay of FIG. 69
CH505 M11 gp120 (HIV-1) = experiment: ELISA
[3] = target: CH505 transmitted/founder (TF) gp120 Env (HIV-1); experiment: ELISA
[4] = target: CH505 w020.14 gp120 (HIV-1); experiment: ELISA
[5] = target: CH505 transmitted/founder (TF) gp120 Env (HIV-1); experiment: SPR
[6] = target: CH505 w030.21 gp120 (HIV-1); experiment: ELISA
[7] = target: CH505 w030.28 gp120 (HIV-1); experiment: ELISA
CH505 M5 gp120 (HIV-1) = experiment: ELISA
[8] = target: CH505 w100.B6 gp120 (HIV-1); experiment: ELISA
[9] = target: CH505 w078.33 gp120 (HIV-1); experiment: ELISA
[10] = target: CH505 w078.15 gp120 (HIV-1); experiment: ELISA
[11] = target: CH505 w053.16 gp120 (HIV-1); experiment: ELISA
[12] = target: CH505 w053.31 gp120 (HIV-1); experiment: ELISA
[13] = target: BG505 SOSIP.664 gp140 trimer (HIV-1); experiment: negative-stain EM
[14] = target: CH505 TF loop D mutant M8 Env on virus (HIV-1)
[15] = target: CH505 TF loop D mutant M20 Env on virus (HIV-1)
[16] = target: CH505 TF loop D mutant M7 Env on virus (HIV-1)
[17] = target: CH505 TF loop D mutant M9 Env on virus (HIV-1)

| Substance | log AUC (CH505 M11 gp120 (HIV-1)) | log AUC [3] | log AUC [4] | log AUC [7] | log AUC (CH505 M5 gp120 (HIV-1)) | log AUC [10] | also measured |
| --- | --- | --- | --- | --- | --- | --- | --- |
| CH103 UCA (antibody) | 2.6 log AUC | 3.5 log AUC | 0.3 log AUC | – | – | – | Kd [1]: 227 nM; kon [1]: 37000 M⁻¹ s⁻¹; fold change of the off-rate against CH505 TF gp120 [2]: 10 fold; Kd [5]: 200 nM |
| CH103 lineage IA1 (antibody) | 12.2 log AUC | 10.4 log AUC | 10.3 log AUC | 10.1 log AUC | 7 log AUC | 10.9 log AUC | log AUC [6]: 11.8 log AUC; log AUC [8]: 12.2 log AUC; log AUC [9]: 8.2 log AUC; log AUC [11]: 8.8 log AUC; log AUC [12]: 13.4 log AUC |
| CH103 lineage IA2 (antibody) | 12.7 log AUC | 10.8 log AUC | 11 log AUC | 11.1 log AUC | 7.8 log AUC | 11.5 log AUC | log AUC [6]: 11.5 log AUC; log AUC [8]: 12.1 log AUC; log AUC [9]: 9 log AUC; log AUC [11]: 9.3 log AUC; log AUC [12]: 13.3 log AUC |
| CH103 lineage IA3 (antibody) | 11.8 log AUC | 11 log AUC | 9.5 log AUC | 7.7 log AUC | 6.8 log AUC | 3 log AUC | log AUC [11]: 1.1 log AUC |
| CH103 lineage IA4 (from UniProt P27701) (antibody) | 10.5 log AUC | 10.1 log AUC | 8.6 log AUC | 6.5 log AUC | 3.8 log AUC | 1.3 log AUC | log AUC [11]: 0.2 log AUC |
| CH103 lineage IA6 (antibody) | 10 log AUC | 9.1 log AUC | 7.9 log AUC | 6.3 log AUC | 3.3 log AUC | 1 log AUC | – |
| CH103 lineage IA7 (antibody) | 10.1 log AUC | 9.2 log AUC | 7.2 log AUC | 3.5 log AUC | 2.3 log AUC | 0.7 log AUC | – |
| CH103 lineage IA8 (antibody) | 6.2 log AUC | 5.5 log AUC | 3.4 log AUC | 1.6 log AUC | 0.6 log AUC | – | – |
| CH235 Fab | – | – | – | – | – | – | stoichiometry (Fabs per trimer) (Fab per trimer) [13]: 1 |
| CH235 UCA (antibody) | – | – | – | – | 0.2 log AUC | – | – |
| CH235 lineage I1 (antibody) | 2.8 log AUC | – | 6.5 log AUC | 2.4 log AUC | 9.2 log AUC | – | – |
| CH235 lineage I2 (antibody) | – | – | 1.2 log AUC | – | 6.9 log AUC | – | – |
| CH235 lineage I3 (antibody) | – | – | 2.7 log AUC | – | 7 log AUC | – | – |
| CH235 lineage IA4 (antibody) | – | – | – | – | 1.4 log AUC | – | – |
| CH235.9 (antibody) | – | – | – | – | – | – | IC50 [14]: 0.66 µg/mL |
| CH235.9 N30T (antibody) | – | – | – | – | – | – | IC50 [15]: > 44 µg/mL; IC50 [16]: > 44 µg/mL; IC50 [14]: 24.3 µg/mL; IC50 [17]: > 44 µg/mL |
